Measured values: the DeepSol protein solubility set

Experiment: soluble on expression in E. coli; label from the status in PepcDB or PDB records

Sequence	soluble on expression in E. coli
MKIIGKIGKGKVEVNEKTKFSILLNNVAKKADIAEGKRAVEDIIRVIYRHQPISTKKIAQKTRLPLPIVAKVRTILEREKILKRTERGAELTDLGKEFAENFLKLKYKKSLTCKTCNGRGIVLDEFFEDILNKVRVWAKRRPLVDTTIDQSFATPETSTYRAALMYERGDLEGKRILFVGDDDLTSLPTALTNMAEEIAVVDIDERILKLIEKFSQKEGVKIKTIKHDLRNPLPQDLKERFDVISTDPPYTVDGLKLFLSRGIEALGKEGIAYLSYSHKPIDEWLSIQKAITNMGFVISELIPNFNYYEGSEIIANTTFIARLVGKNLKINIGDTEKIYTGLVKPVIRYYKCLKCGKIHKVGEEVKKVEDLVCECGGKKFKMIKREKLKNELEHHHHHH	soluble
SEESVKPVPKHANHRRSSVRSSLYGDVRDLWSTATMSTANVSVSDVCEDFDEEGKSVRNRIRKYSQTISIRDSLNLEPEEIQQQARRELELCHGRSLEHGEDHEESETSLASSTSESLIFSLWKPHRTYWTEQQNRLPLPLMELMETEVLDILKKALITYRSTIGRNHFMTKELQGYIEGIRKRRNKRLYFLDQ	soluble
MGSDKIHHHHHHMVRTTKFGDLPVLHVFAASQAQTKLPTIIDYHGWTNQTATELGTAYQLVRAGFRVILPTAYLHGSRNDGTDLDRHPEHFWSIVGHSVAEFPQLVAALVAAGISDANKIGVMGTSMGGITAAGIMATQPTVVAGVSLIGSPEPVAFATDQVAQLPAALQAKLPAELIEQTYQQLAKFDLSEHPEALAGRPMFFFNGTADQMVPYQYIRDFKHRFKDEPALKATVFKRAEGGVHHVPHKIQEAAVAFLETNILK	not soluble
MSQIMYNYPAMMAHAGDMAGYAGTLQSLGADIASEQAVLSSAWQGDTGITYQGWQTQWNQALEDLVRAYQSMSGTHESNTMAMLARDGAEAAKWGG	soluble
MSLNYSDPVTFEILGVVANYGQEGCFMLAQLPPALQSLHLPLRLKLWDGNHFDLGPSPQVTILVKEPQLISQLTHPSMDQLGTAFVEGKLELEGDIGEAIRVCDELSEALLADEDETPPPRVSHDKTTDAKAISYHYDVSNAFYQLWLDQDMAYSCAYFREPDNTLDQAQQDKFDHLCRKLRLDAGDYLLDVGCGWGGLARFAAREYGAKVFGITLSKEQLKLGRKRVQAEGLADKVDLQILDYRDLPQDGRFDKVVSVGMFEHVGHANLALYCQKLFGAVREGGLVMNHGITAKHVDGRPVGRGAGEFIDRYVFPHGELPHLSMISASICEAGLEVVDVESLRLHYAKTLHHWSENLENQLHKAAALVPEKTLRIWRLYLAGCAYAFQKGWINLHQILAVKPYADGHHDLPWTREDLYREGHHHHHH	soluble
MLTEDDIKEIRENREMIEQGRREPVTLYIKGVSEKDPITGEEIQGEPRKENVQLVWKKFTSVEKTKFADLDVKKGEALVTFPLNVDLENIEKIERKGVFYVIELIDERGLGGVNRREVIVKRVI	not soluble
MGSDKIHHHHHHMKFLDVNQHLSELDEHIKVLKSYGDVFEAVEARITRVINMDGAFKGEGAKGVIYNHTHMQLPTIRSIRAFLISFSDTLEKMKANITEYEPASNGSVSENFWKNQLPKAYDRYEETLEEREATINQATAQVSHILHLGKLQTGDLYNSVDSARKHADTVLEGLYDLDQAGVELMAQVRTKMEELKATIRQVLDWNMTGGVTMKGVSIMEIGGYFANNATLHEKAPEVKVELLDLNPLVQYANDFPLRFKYDTMHSINESI	not soluble
MAKIYNAPKPKYSGWEWFKFIAIRTVFPPVLLWDLIKIGANKLLGEWVSGLVLPAQNENFDDLAISDDTVSNYNEDDLICEKHDVITHDGAHLDTFEVRHRSQESIDPKYQKYIINLVGNGMCYEHIIDDIKEDSKALKANVIGFNLRGVGQSTGKAKSSEDLVADGIAQVQRLLDQGVSPQNITLKGHSLGAGVASLVAQHFHQLGQPINLFNSRSFSTITNFLVGHMRLERDEIGRAIGHKDSTVGTILGWLAKPFIKFGVALAKWEINAGSAFKSVPEAYKDYIVVRSRKEIRGERIDDAVIPHYASIHKELASERHKKKAEIDEEIANLDDIIRKADPLAKPGLANARDALVQAREKIKSDRKMETDVQYANGHNSDWNALHNRSGKSAQTFFREFVQRTEADHAVKSIPEIN	not soluble
MGSDKIHHHHHHMKVLVVDNSRWWGGAEKNLQTLVDNRSNAIEFNVLSDYPMSHNITYRDFCGVRYRFDNSYFIRYLDNKYQIKGMRIFRLIYKSLYLIPSLVRYNPDIVHFNLYRSSDILDIIVCKILRKKVVLHIRSLANRIKIAPLTIKLADAVICVSKSVKQGFSFTGNKYHVIYNGIDSKYYHLVPQDQAREKLGINLTSFVIGSIGNLEREKGHDVAVKALKKIIDDGNVVVALIIVGKDSTINESETKRILTLSKDLGVQGHIKIFSISHKDIHYVYSACDIVLTLCIDGEAFGMIPLEAAMHNRPVIATNVGACRETIIHNQTGLLCEPNSPVALVQAIDTIMKDKKYCDQLTESARNRVLHKYSADAYRDSVYKIYITITKENKRKL	not soluble
MGSDKIHHHHHHMSLLTVKDLGQSFIDKTLYEDANFVLNKEDHMGVTGQNGVGKSTLIKILTGEILPDNGQVKWQNKIDVGYLDQYAKLAPGVTIRGFLRTAFDDLFQKEKELNELYTKYAETSDEDLLEKAGKVQTYLEENNFYDIDTEIEQVASGLGLADLGYDHDVSKLSGGQRSKIILGKLLLQNPDVLVLDEPTNYLDVSHIDWLVDYLNNFEGAFIVVSHDYDFLGRITNCIIDIDFGTITRYTGTLKQAMRQKAANRETYLKAYANQQRKIAKTEAYIRKNKAGTRAKSAKSREKQLARMDVLTPPKNNRRAKFEFPYVATASNLLLQTQDLVIGYDQALVKSAFNFSVGGDEKVAITGFNGIGKTTLLKTLLGQLKPIYGSYDLSVTAKLAYFKQDLTWPNNNMTPLQYLQEEFERKKPKELRQALARMGLTAQQAMSPLKELSGGEQEKVKLAKMQFEPANLLFLDEPTNHLDNDTKDALRKAIINFSGGVIIVSHERDFFRGDWIDKTIDIETMN	not soluble
MWRKLTIIVVLLCLAGYAAYEQFGKSDQAAQGEQEKSEAAMKEMIASNGIEIGKSAPDFELTKLDGTNIKLSDLKGKKVILNFWATWCGPCQQEMPDMEAFYKKHKDNVEILAINYTPSEKGGGVEKVSNFAKEKGITFPILLDKNIDVTTAYKVITIPTSYFIDTKGVIQDKFIGPMTQKEMEKRIAKLK	not soluble
MRFIADLVHEKKQLVEKAEAILNEAEKAGGSLTKEQEQQFNRYKDRITRINDSIDEELSKIRTSEPILNMPHNPMAREDVSKIPVTKAISKSFRGMFYGNETVSLSNNGFHSMDEFLRTLHSGRADNRLINASMVEGIPEFGGYSVPEEYGAFLMDKSLENEIIRPRATVWAMGSETKKVSAFDGADRTNHLFGGISGEWLEEGQTGTRKTAKLRLIQLKAKKLACFSQASNELIADGMSFEEMLAGALIKGLGWYMDYAFINGTGEGQPLGIINDPALITVNKEASQEPATITYQNVVNMFSRLAPSCFTNAVWLANPSVIPQLLTMTITIGTGGAQIPVFREESGKFTLLGKEVLFTEKCPTLGAKGDLILADLSQYAIGMRKEIALDRSNVPGWMEDMTDYRVIVRVDGQGTWDKPITPKNGATLSWAVALEAR	soluble
STLSRFAYNGKRCPSSYNILDNSKIISEECRKELTALLHHYYPIEIDPHRTVKEKLPHMVEWWTKAHNLLCQQKIQKFQIAQVVRESNAMLREGYKTFFNTLYHNNIPLFIFSAGIGDILEEIIRQMKVFHPNIHIVSNYMDFNEDGFLQGFKGQLIHTYNKNSSVCENCGYFQQLEGKTNVILLGDSIGDLTMADGVPGVQNILKIGFLNDKVEERRERYMDSYDIVLEKDETLDVVNGLLQHILCQGVQLEMQGP	soluble
MGSDKIHHHHHHMNQATRNVLWMTGIKKSFSGVPALWGVDFELKAGEIHALVGENGAGKSTLIKIMTGAYRRDSGVMEYDQKTVAFENPIQAQAAGIVAVYQEIQLVGLRTVAENIFLSREPNRFGIIDRRAMNARAADILKRLGLHIDPHSVVGSLNIAHRQMVAIARAISFGARVLILDEPTSSLTKTEVSVLFDVMRRLKSEGTSIVYISHRFEELYTVCDRVTVLRDGRNIVTRSLSMLTRLELVCFMLGRKPEEVSKRVTAFARQSQNMLGQPVLLQAEALKYKKRLNGVSIEVQHGEIVGLAGLLGSGRSETVRALFGAEPLEGGTVKLEGSLLSLRDPHDAIDAGIAFLSEDRKADGIIPELSVRENLTLAALPNLTQWGIVSKKRQSELALRFMERLDIKAASIEQKIRFYTNSGCNYDSSDRGSFLLYPLYAFRPSYRCSRRQRGGCTACGYPCGAREIYSLYN	not soluble
MSDEESFVILGSSPCSSLMPDSSLRSDVCGNAQEAKETVASTSTQPPTVNCIPVSITASQQQHKSLDSGSSQQQSLATSFIMGEIQSDVLKNSVYSQFPSLCSLQGSAEEVVKLQNMMTEYLALKSQPNHAELPQPDSTMAPGSRRPRTPVQGACERVPSANRDPSRGKPRAEEGPRDENRADLEHHHHHH	not soluble
NLDALREVLECPICMESFTEEQLRPKLLHCGHTICRQCLEKLLASSINGVRCPFCSKITRITSLTQLTDNLTVLK	soluble
PREPVVNDEMCDVCEVWTAESLFPCRVCTRVFHDGCLRRMGYIQGDSAAEVTEMAHTETGWSCHYCDNINLLLTEE	soluble
MSLNLIFKKKSYSFKLSTKVENSKTTYLTKLGWIIKLTSNDKKIGFGEVSPLLEEDLKKCAKQLNMIPKNVEAFNLSEQINIFHPCIQSAINSALAEINGKIIFKENYTFDEIDKTAILLNSENVITELNEIKQRQSIIGKSVTIKWKVALRDNHEEEANLEEILSQIGNNIKLRIDANGSWSRKIANRWADILKDNKNIDWLEQPLCVEDIEGMKELNKKIPIALDESLLKFPTLIDEWKGWQIRRPSQENNPVKLLRELENKKALISISTSFETGIGKRWLYHLSSLQLQGPTPKVPGLGMNKFPNSFLFLNEAKKIWDQLEGHHHHHH	not soluble
MGSDKIHHHHHHMSEPVKGAQTVTRALSVLKHISHAHPFGIAIGELSEVSQLDRATTYRLASTLVSFGLVERDAARKYRLGVEAMQLGLSAMRSAPIVGQLQPAMRRLARRTEDTVFLVVRSGDYGHCIHCEEGTYPVKAMVLQVGGMRLLGVGSAGMTLLSMLSDVEVLALYQRHQEEFSRGPSFAKLKRMVGEARERGYADTVDLVTEGVSGVGMRFELSAGSHAAVSVAAIRSRMTPERKKWIAEIIAEELQVSGFTPAYSRVS	not soluble
MFFRSKKTHFLEVDKFWTPEKIVRSSEVKRINKNTEISTQESTSTSTEYQFATLEDFQNAMAEKDQNIKKLKEEVEKLIDEQEDEIILAEMQFEIFQIKAETEARRLKKLLIMRNEDFSILKTKYEDLQKQFYDLSPYPVNGYGGILIGDETPKQEKLMDQLLDKLKVLNDGDYYDIFHLLETIDKIIVTFSLYFKDPILITKKMEDNKQIIQKLEDEVDYLTKNLESLNPSQLVTSLENKDDYLLVTVEFQKRKNILFSELKKKNEEIKMLQESFNVYQKDSIEKVMEKFLELQHQNLTVFSVDDTNSISTELNNDRNVAKNDKSEGVESLMLENFNNSLKIALNSVKREISKQNVTIKTDEDMIKDMKKTIDSNENMIKMLADELSWKTKDCQVKVSALENQIFDKNDEIVKLKSHVSTESGNSPKLERNVRELTLKISSETSSQGTSRTYPHLEQEILTFHSEKISDPSEEANQEVREFPLEQTLEKLKLEQTESLVAILEQPGGLKTMRNDPQWLQVVDHFCDYVRKIEKLEENVKEEQMNTEMIMKERTREITELYYQKRVLEKKISEQFKEIQQVKSEISRVYEANIQEIQKSFDIKLKLKDQIIGELEAVDEMSSNHTELSDGWSDLDIVQNTEELQ	not soluble
